Values quoted from earlier work, collected in paper PMC4089558.

Molecular target: CFP10 (Mycobacterium tuberculosis) (UniProt P9WNK5)
Sequence (P9WNK5 2-100): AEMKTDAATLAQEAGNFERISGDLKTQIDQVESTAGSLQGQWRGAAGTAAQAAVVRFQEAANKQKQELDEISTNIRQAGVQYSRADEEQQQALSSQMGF

ESAT-6, sequence (P9WNK7 2-95): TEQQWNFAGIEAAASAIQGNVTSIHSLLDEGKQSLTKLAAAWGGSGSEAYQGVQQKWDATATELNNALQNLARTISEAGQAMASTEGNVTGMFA

Question: Which Kd does the source give for ESAT-6 (from UniProt P9WNK7) here?
Answer: 11 nM
